T1: Rec27 (untagged, His6-SUMO tag removed by Ulp1) (S. pombe, UniProt Q9USR4 1-125)
T1 sequence (looked up): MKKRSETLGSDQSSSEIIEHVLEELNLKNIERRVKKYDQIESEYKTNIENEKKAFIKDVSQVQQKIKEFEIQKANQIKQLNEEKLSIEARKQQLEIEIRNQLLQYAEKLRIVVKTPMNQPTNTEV

B1: Rec25 (untagged) (natural protein, S. pombe, UniProt Q9C115 1-150, looked up)
chain: MVKGSVTNTSSIVKQFEKSSIKHETETIAFAKQFINECIREFQEQKDNVVEEKNTDQNHQNQNQEGVIIEIYQELLQKVDLISSELRQNLSSLQLRFQEVERDTGHDLLNVLNSLSQEARLAQKVLEEDGSQQGSQLIQGLLTCFQSTGN
B2: Mug20 (untagged) (natural protein, S. pombe, UniProt Q9HGN4 1-151, looked up)
chain: MSEIITSLQTELSNRHANMVSEAVLAFSEHHDSALHSYFLNARVKDVILESLRTTEEKLRALDKLQLDASKNLSNLLVEYNSINAELESVNSKISSISSQEYALEEFQALSQNFEKNLVQHRRNSQNKLKCAMEKLKMIETSTHKAILDNF

Target: T1, Rec27 (untagged, His6-SUMO tag removed …)
Test: mass photometry

Row | Binder | stoichiometry N
1 | B1 | 1
2 | B2 | 1

Reference: publication PMC11879393 (Nucleic Acids Research, 2025)
